Laboratory results published in patent US20250027068A1.
Where a chain is given by its changes, count along the chain named.

B1: VRT-30 (Fc fusion)
chain: QITSVWTKGVTPPTPEQFRYNNEDVIHAPYLANQGWYDITKTFNGKDNLLCGAATAGNMLHWWFDQNKTEIEAYLSKHPEKQKIIFNNQELFDLKAAIDTKDSQTNSQLFNYFRDKAFPGLSARQLGVFPDLVLDMFINGYYLNVFKTQSTDVNRPYQDKDKRGGIFDAVFTRGVQTTLLTARHDLKNKTLNDISTLIKQELTEGKALALSHTYANVRISHVINLWGADFNAEGNLEAIYVTDSDANASIGMKKYFVGVNAHGKVAISAKKIEGENIGAQVLGLFTLSSGKDIWQKLSDKTHTCPPCPAPEAAGAPSVFLFPPKPKDTLMISRTPEVTCVVVDVSHEDPEVKFNWYVDGVEVHNAKTKPREEQQNSTYRVVSVLTVLHQDWLNGKEYKCKVSNKALKAPIEKTISKAKGQPREPQVYTLPPSRDELTKNQVSLTCLVKGFYPSDIAVEWESNGQPENNYKTTPPVLDSDGSFFLYSKLTVDKSRWQQGNVFSCSVMHEALHNHYTQKSLSLSPG
B2: VRT-31 (Fc fusion)
chain: B1 chain with P13L, S76K, T190G, D193E, A246S
B3: VRT-28 (Fc fusion)
chain: ITSVWTKGVTPPAKFTQGEDVFHAPYVANQGWYDITKTFNGKDNLLCGAATAGNMLHWWFDQNKEEIEAYLKKHPEKQKIIFGDQELLDVRKVINTKDSQTNSALFNYFKDKAFPNLSARRLGVFPDLVLDMFINGYYLNVYKTQTTDVNRTYQTKDRRGGIFDAVFTRGVQSKLLTERHDFKEKTLKEISDLIKQELTEGKALGLSHTYANVRINHVINLWGADFDSNGNLEAIYVTDSDTNASIGMKKYFVGVNSAGKVAISAKEIKEDNIGAQVLGLFTLSTGQDIWNQTNDKTHTCPPCPAPEAAGAPSVFLFPPKPKDTLMISRTPEVTCVVVDVSHEDPEVKFNWYVDGVEVHNAKTKPREEQQNSTYRVVSVLTVLHQDWLNGKEYKCKVSNKALKAPIEKTISKAKGQPREPQVYTLPPSRDELTKNQVSLTCLVKGFYPSDIAVEWESNGQPENNYKTTPPVLDSDGSFFLYSKLTVDKSRWQQGNVFSCSVMHEALHNHYTQKSLSLSPG
B4: VRT-23 (Fc fusion)
chain: SQTEDSESLQRLRDIEDFQAEKKMQNVVYTKWLDGVDVKDHDFRKIVDGNIAYYATPLLNGRGFYDINKDFNRDNDKCAAAVAANMFHYWLDINRDNVDRFLRQNPEKHGIIELPDEQLKLSDFLNTYESDHGYRDKSKLFDFISNNFNKPVWTDKLLDNYINGYAYNYKYGRTIEDSTKNTSKINFFKEVFNEKILTNIHSIRNQNEFSVLLSEALYTGKAIGLSYGPAGLRHSLGHIISVWGADLDADGNVVAIYVTDSDDKKLTIGDERVGLKRYKISTDDENRLRLTAYEETHNTGGQIRGLWTLDTGKYAWADYFDKTEQTGTDQAEQDKTHTCPPCPAPEAAGAPSVFLFPPKPKDTLMISRTPEVTCVVVDVSHEDPEVKFNWYVDGVEVHNAKTKPREEQQNSTYRVVSVLTVLHQDWLNGKEYKCKVSNKALKAPIEKTISKAKGQPREPQVYTLPPSRDELTKNQVSLTCLVKGFYPSDIAVEWESNGQPENNYKTTPPVLDSDGSFFLYSKLTVDKSRWQQGNVFSCSVMHEALHNHYTQKSLSLSPG
B5: VRT-27 (Fc fusion)
chain: VTSVWTKGVTPPADFTQGEDVFHAPYVANQGWYDITKTFNGKDNLLCGAATAGNMLHWWFDQNKEYIEAYLKKHPEKQKIIFGDQELLDVRKAINTKGSQKNSELFNYFRDKAFPNLSARRLGVFPDLVLDMFINGYYLNVTKTQTTDVNRTYQEKDKRGGIFDAVFTRGVQSKLLTSRHDFKEKGLKEISDLIKQELTEGKALGLSHTYANVRINHVINLWGADFDSDGNLKAIYVTDSDTNASIGMKKYFVGVNSAGKVAISAKEIKEDNIGAQVLGLFTLSTGQDIWNQTNDKTHTCPPCPAPEAAGAPSVFLFPPKPKDTLMISRTPEVTCVVVDVSHEDPEVKFNWYVDGVEVHNAKTKPREEQQNSTYRVVSVLTVLHQDWLNGKEYKCKVSNKALKAPIEKTISKAKGQPREPQVYTLPPSRDELTKNQVSLTCLVKGFYPSDIAVEWESNGQPENNYKTTPPVLDSDGSFFLYSKLTVDKSRWQQGNVFSCSVMHEALHNHYTQKSLSLSPG
B6: VRT-26 (Fc fusion)
chain: VTSVWTKGVTPPTNFTYGEDVLHAPYVANQGWYDITKTFNGKDNLLCGAATAGNMLHWWFDQNKEQIENYLKKHPEKQKINFNGEQLFDVKEAIDTKDSQLDSKLFEYFKEKAFPYLSTKHLGVFPDHVIDMFINGYRLSLTNHGPTPVKRGSKDKRGGIFDAVFTRGVQSKLLTNRHDFKEKTLKEISDLIKQELTEGKALGISHTYANVRINHVINLWGADFDAEGNLEAIYVTDSDTNASIGMKKYFVGVNSNGKVAISAKEIEEDNIGAQVLGLFTLSTGQDIWNQTNDKTHTCPPCPAPEAAGAPSVFLFPPKPKDTLMISRTPEVTCVVVDVSHEDPEVKFNWYVDGVEVHNAKTKPREEQQNSTYRVVSVLTVLHQDWLNGKEYKCKVSNKALKAPIEKTISKAKGQPREPQVYTLPPSRDELTKNQVSLTCLVKGFYPSDIAVEWESNGQPENNYKTTPPVLDSDGSFFLYSKLTVDKSRWQQGNVFSCSVMHEALHNHYTQKSLSLSPG
B7: VRT-24 (Fc fusion)
chain: VTSVWTKGVTPPANFTQGEDVFHAPYKANQGWYDITKTFNGKDNLLCGAATAGNMLHWWFDQNKDQIEAYLKEHPEKQKINFNGEQLFDVKEAIDTKDDQTNSKLFEYFKEKAFPYLSTKHLGVFPDHVLDMFINGYRLSLTNHGPTPVKEGSKDKRGGIFDAVFTRGVQSKLLTSRHDFKEKTLKEISDLIKQELTEGKALALSHTYANVRINHVINLWGADFDSNGNLEAIYVTDSDTNASIGMKKYFVGVNSAGKVAISAKEIEDDNIGAQVLGLFTLSTGQDIWNQTNDKTHTCPPCPAPEAAGAPSVFLFPPKPKDTLMISRTPEVTCVVVDVSHEDPEVKFNWYVDGVEVHNAKTKPREEQQNSTYRVVSVLTVLHQDWLNGKEYKCKVSNKALKAPIEKTISKAKGQPREPQVYTLPPSRDELTKNQVSLTCLVKGFYPSDIAVEWESNGQPENNYKTTPPVLDSDGSFFLYSKLTVDKSRWQQGNVFSCSVMHEALHNHYTQKSLSLSPG
B8: VRT-25 (Fc fusion)
chain: B7 chain with K27V, A69R, D99S, N102D, A203G, N227E, E231K, E267K, D268E

Target: pooled human IgG (human)
Experiment: cell-based or functional assay

Question: With B1 as the binder, how does the Enzyme Activity Endpoint Assay: Fab′2 read?
Answer: Its Enzyme Activity Endpoint Assay: Fab′2 is 0 ng/µL.

Question: What about the Enzyme Activity Endpoint Assay: Fc of the same binder?
Answer: The Enzyme Activity Endpoint Assay: Fc was 46 ng/µL.

Question: What about the Enzyme Activity Endpoint Assay: IgG of the same binder?
Answer: The Enzyme Activity Endpoint Assay: IgG was 986 ng/µL.

Question: And the Enzyme Activity Endpoint Assay: scIgG?
Answer: Its Enzyme Activity Endpoint Assay: scIgG is 22 ng/µL.

Question: Which results are given for B2?
Answer: Enzyme Activity Endpoint Assay: Fab′2: 0 ng/µL; Enzyme Activity Endpoint Assay: Fc: 27 ng/µL; Enzyme Activity Endpoint Assay: IgG: 1020 ng/µL; Enzyme Activity Endpoint Assay: scIgG: 21 ng/µL

Question: What does the source list for B3?
Answer: Enzyme Activity Endpoint Assay: Fab′2: 0 ng/µL; Enzyme Activity Endpoint Assay: Fc: 3 ng/µL; Enzyme Activity Endpoint Assay: IgG: 987 ng/µL; Enzyme Activity Endpoint Assay: scIgG: 22 ng/µL

Question: What does the source list for B4?
Answer: Enzyme Activity Endpoint Assay: Fab′2: 0 ng/µL; Enzyme Activity Endpoint Assay: Fc: 29 ng/µL; Enzyme Activity Endpoint Assay: IgG: 1010 ng/µL; Enzyme Activity Endpoint Assay: scIgG: 20 ng/µL

Question: B5 was tested. Which Enzyme Activity Endpoint Assay: Fab′2 did it give?
Answer: The Enzyme Activity Endpoint Assay: Fab′2 was 0 ng/µL.

Question: What about the Enzyme Activity Endpoint Assay: Fc of the same binder?
Answer: Its Enzyme Activity Endpoint Assay: Fc is 92 ng/µL.

Question: What about the Enzyme Activity Endpoint Assay: IgG of the same binder?
Answer: Its Enzyme Activity Endpoint Assay: IgG is 1150 ng/µL.

Question: And the Enzyme Activity Endpoint Assay: scIgG?
Answer: The Enzyme Activity Endpoint Assay: scIgG was 33 ng/µL.

Question: For B6, which Enzyme Activity Endpoint Assay: Fab′2 is on record?
Answer: The Enzyme Activity Endpoint Assay: Fab′2 was 0 ng/µL.

Question: What about the Enzyme Activity Endpoint Assay: Fc of the same binder?
Answer: The Enzyme Activity Endpoint Assay: Fc was 213 ng/µL.

Question: And the Enzyme Activity Endpoint Assay: IgG?
Answer: The Enzyme Activity Endpoint Assay: IgG was 303 ng/µL.

Question: And the Enzyme Activity Endpoint Assay: scIgG?
Answer: The Enzyme Activity Endpoint Assay: scIgG was 342 ng/µL.

Question: How did the Enzyme Activity Endpoint Assay: Fab′2 turn out when B7 was run?
Answer: Its Enzyme Activity Endpoint Assay: Fab′2 is 0 ng/µL.

Question: What about the Enzyme Activity Endpoint Assay: Fc of the same binder?
Answer: The Enzyme Activity Endpoint Assay: Fc was 187 ng/µL.

Question: And the Enzyme Activity Endpoint Assay: IgG?
Answer: Its Enzyme Activity Endpoint Assay: IgG is 392 ng/µL.

Question: What about the Enzyme Activity Endpoint Assay: scIgG of the same binder?
Answer: The Enzyme Activity Endpoint Assay: scIgG was 249 ng/µL.

Question: B8 was tested. Which Enzyme Activity Endpoint Assay: Fab′2 did it give?
Answer: Its Enzyme Activity Endpoint Assay: Fab′2 is 12 ng/µL.

Question: And the Enzyme Activity Endpoint Assay: Fc?
Answer: Its Enzyme Activity Endpoint Assay: Fc is 204 ng/µL.

Question: And the Enzyme Activity Endpoint Assay: IgG?
Answer: Its Enzyme Activity Endpoint Assay: IgG is 183 ng/µL.

Question: And the Enzyme Activity Endpoint Assay: scIgG?
Answer: Its Enzyme Activity Endpoint Assay: scIgG is 284 ng/µL.
